This note sets out measurements from paper PMC5587741, “CLEC14a-HSP70-1A interaction regulates HSP70-1A-induced angiogenesis” (Scientific Reports, 2017).

This assay deals with T1, recombinant human HSP70-1A (rhHSP70-1A) (human, UniProt P0DMV8 1-641).
T1 construct: commercially available purified recombinant human HSP70-1A (HSPA1A); source: bought: Sino Biological Inc
The experiment in a line: BLI; Octet RED96; rhCLEC14a-ECD immobilised on amine-reactive biosensors; rhHSP70-1A 200-25 nM in 2-fold dilutions in 1x kinetics buffer; 1:1 binding model. Conditions: both partners purified.

T1 sequence (P0DMV8 whole entry): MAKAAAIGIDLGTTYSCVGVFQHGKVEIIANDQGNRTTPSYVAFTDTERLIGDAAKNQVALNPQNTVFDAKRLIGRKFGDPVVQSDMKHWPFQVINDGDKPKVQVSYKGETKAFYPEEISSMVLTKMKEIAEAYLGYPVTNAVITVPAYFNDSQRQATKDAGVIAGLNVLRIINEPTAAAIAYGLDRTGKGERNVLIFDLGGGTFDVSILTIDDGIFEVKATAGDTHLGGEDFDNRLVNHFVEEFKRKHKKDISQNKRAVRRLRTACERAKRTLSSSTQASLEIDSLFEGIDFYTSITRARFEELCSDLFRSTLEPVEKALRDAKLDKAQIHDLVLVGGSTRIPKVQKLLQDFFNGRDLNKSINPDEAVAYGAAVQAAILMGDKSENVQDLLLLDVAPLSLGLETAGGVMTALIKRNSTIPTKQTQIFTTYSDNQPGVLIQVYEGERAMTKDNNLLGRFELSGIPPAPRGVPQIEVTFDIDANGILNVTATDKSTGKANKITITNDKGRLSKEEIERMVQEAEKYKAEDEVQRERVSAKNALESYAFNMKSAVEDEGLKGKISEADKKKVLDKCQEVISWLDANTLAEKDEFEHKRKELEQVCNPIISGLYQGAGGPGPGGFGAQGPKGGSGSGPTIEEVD

B1: recombinant human CLEC14a extracellular domain (rhCLEC14a-ECD) (domain or fragment, UniProt Q86T13 22-397, looked up)
chain: EHPTADRAGCSASGACYSLHHATMKRQAAEEACILRGGALSTVRAGAELRAVLALLRAGPGPGGGSKDLLFWVALERRRSHCTLENEPLRGFSWLSSDPGGLESDTLQWVEEPQRSCTARRCAVLQATGGVEPAGWKEMRCHLRANGYLCKYQFEVLCPAPRPGAASNLSYRAPFQLHSAALDFSPPGTEVSALCRGQLPISVTCIADEIGARWDKLSGDVLCPCPGRYLRAGKCAELPNCLDDLGGFACECATGFELGKDGRSCVTSGEGQPTLGGTGVPTRRPPATATSPVPQRTWPIRVDEKLGETPLVPEQDNSVTSIPEIPRWGSQSTMSTLQMSLQAESKATITPSGSVISKFNSTTSSATPQAFDSSSA
notes: commercially available purified recombinant human CLEC14a extracellular domain; source: bought: Abcam
The term Kd denotes the constant that tells how readily two partners part at equilibrium. On to B1, for which the dissociation constant Kd is approximately 8 nM.
